Experimental data reported in publication PMC6889141, “In vivo methylation of OLA1 revealed by activity-based target profiling of NTMT1† †Electronic supplementary information (ESI) available. See DOI: 10.1039/c9sc02550b” (Chemical Science, 2019).

Molecular target: T1, N-Terminal methyltransferase 1 (NTMT1), wild type (UniProt Q9BV86 1-223)
T1 construct: N-terminal methyltransferase 1 (NTMT1), wild type; they probably stand in the ESI; also called wt NTMT1
T1 sequence (looked up): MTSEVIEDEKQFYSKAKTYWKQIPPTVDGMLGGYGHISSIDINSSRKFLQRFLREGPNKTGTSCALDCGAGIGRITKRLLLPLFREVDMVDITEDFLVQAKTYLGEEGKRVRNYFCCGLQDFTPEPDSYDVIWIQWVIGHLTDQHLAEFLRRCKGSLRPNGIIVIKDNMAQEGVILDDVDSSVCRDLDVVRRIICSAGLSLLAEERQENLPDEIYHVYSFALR
Test: ITC; affinity of RCC1 peptide with wt NTMT1; conditions, and which of the two was titrated, not told in the text shown
Settings: both partners purified

- Kd: 1220 ± 20 nM
B1: RCC1p, peptide of the first 10 N-terminal residues of RCC1 after initial methionine removal (peptide, UniProt P18754 2-11, looked up)
peptide: SPKRIAKRRS
notes: RCC1, the first 10 N-terminal residues after removal of the initial methionine (residues 2-11 counted with the methionine as 1); also called RCC1 peptide; source: synthetic peptide
